In the supplement of paper PMC12764529:
± gives the half width of the 95% confidence interval.

Experiments:
[1] = folding stability dG unfold from chymotrypsin proteolysis; higher = more stable
Procedure, shortened: (§1)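 Digests were run with trypsin and chymotrypsin at 11 concentrations in threefold dilutions, plus a no-protease condition, on designed mini-proteins in a PA-tagged cDNA display construct. The mini-proteins were under 80 residues, had no cysteine, and were kept only when AlphaFold2 dimer inter-PAE was above 15. After sequencing, Bayesian fitting of the counts gave K50, from which unfolding free energy was derived against a sequence-predicted unfolded-state K50 and a shared folded-state K50, per protease or combined.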

[2] = folding stability dG unfold (combined trypsin and chymotrypsin); higher = more stable
Procedure, shortened: as §1

[3] = folding stability dG unfold from trypsin proteolysis; higher = more stable
Procedure, shortened: as §1

Sequence	folding stability dG unfold [1] [kcal/mol]	folding stability dG unfold [2] [kcal/mol]	folding stability dG unfold [3] [kcal/mol]
SAGGSAPPNWRRIEITFYIPPGQPTVSELADHIAKRIGFPVTGVEIDKVERNPDGAYEVKVSIIVPSAGGSA [r15_654_TrROS]	2.9 ± 0.054	2.75 ± 0.15	2.69 ± 0.056
SAGGSGMIYVIKIKLEPTIKPGKKKEFEFELVLEATPEEIEEVLEKIKKLPKNIKIKEIKIEVFPESAGGSA [r2_75_TrMRF]	3.18 ± 0.073	2.6 ± 0.32	2.08 ± 0.12
SHPDEFPKELVDAIAKAFPNIKRIEVEPLPDKFVLLKVEFIDGDGEGRVAFAVPTPDGETALHEYLVRNPSA [r9_678_TrMRF]	1.23 ± 0.062	1.14 ± 0.056	1 ± 0.013
SAGGSAGIAKKNNLTLKVTVEKKGDKLLVTVEITYPDGTKKTITIELNIKLVPEVPPVHPDEPGFGSAGGSA [r15_843_TrMRF]	2.83 ± 0.1	2.81 ± 0.095	2.58 ± 0.17
SAGMTLKEEEFELPDGSRRIRLTFTSEEELAAKLKELGFEKFNPLSPSESVDVTIPPDGVLSESLPKEGSAG [r5_941_JUSTAS]	1.86 ± 0.066	1.42 ± 0.11	0.651 ± 0.061
SAGGSAGGAELKPVGNDPETGKTAVILLKKPDPTGLVLALEGLSPEELKKLAEIPGYEAVAVLASAGGSAGG [r6_185_TrMRF]	0.213 ± 0.23	0.787 ± 0.071	0.996 ± 0.037
SAGGSAGGSAKKPVTGTIILKYPGTPEDALAKAKEIAKELESRGYSVSAEFLPNGYIKITLPSAGGSAGGSA [r18_262_TrMRF]	1.78 ± 0.051	1.73 ± 0.098	1.48 ± 0.049
SAGGRLVRIKVDIYSPGDGEPHEFEFLLHVDANGSVEIYFPNGKRIRIPPNMKVKIKDIEVLDPDQISAGGS [r16_223_TrROS]	3.45 ± 0.11	3.17 ± 0.14	2.56 ± 0.089
SAGGSAKIEIERIEPRPVLVPRPDGSLVPVPEVEVELRIEGDPEKMEEEERKKIEALAEEIAKELGSAGGSA [r2_40_TrMRF]	0.736 ± 0.056	0.428 ± 0.16	-0.508 ± 0.16
SAGGSAGGSAGGDKKDPGQPRQEVEIEIPVYDPNGKPKGPIEITMPAGQSLDEIADEIFNSAGGSAGGSAGG [r7_110_TrROS]	1.05 ± 0.049	0.937 ± 0.13	0.758 ± 0.068
SAGGSAGGSALKNAPGPDPALLKPRPVLVIPIPKDIPLEEAEALAEIFRKLYPDVPVVLDVEGGSAGGSAGG [r6_299_TrMRF]	1.07 ± 0.072	0.971 ± 0.05	0.826 ± 0.046
SAGGSAGGSMVITVDPSLSPEEAVERAKEEVKKEVPESEPVEVTVVIKDPETGKTTEIPVKLDSAGGSAGGS [r12_1051_JUSTAS]	-1.17 ± 0.23	0.187 ± 0.26	0.739 ± 0.047
SVEKARERLEKLGFKLVSVDPLEDGSVVLTFEFPDNKVVVLVDEDGNARIVAYNPSDGKFSEATFNLDDLSA [r9_2_TrMRF]	2.577 ± 0.024	2.7 ± 0.038	2.84 ± 0.066
SAGGSAGGSAGKKITLPNATITYDEETGEVTITVDGKTITLPPGAKIEVDENGNLTIYLPSAGGSAGGSAGG [r17_34_TrROS_Hall]	2.71 ± 0.075	2.55 ± 0.12	2.45 ± 0.1
SAGGGFEEIIEKAIAKAKELFPDTGAVVPITETVYDPVKKKPIVIEVLVEFDKDGKIKKVEILKISELSAGG [r13_770_TrMRF]	1.34 ± 0.044	2.09 ± 0.11	2.86 ± 0.2
SAGPKNREIKVRIQFNGNWVEYKMPDNDLKELVKNGGLQIAGVDPEKDEIMIQIPVPPPKPDPEDGKPKSAG [r5_868_TrROS]	1.23 ± 0.083	0.773 ± 0.15	-0.0867 ± 0.19
SAGGSAKMKITVEKNEDGELYVLIEVDSVEELEEALKKLPGIEKVEVEVFVDEETKRVYILVRVKPSAGGSA [r15_344_TrROS_Hall]	3.62 ± 0.045	3.26 ± 0.064	2.36 ± 0.071
SAGGSAGGSAGGMEISEKLREYIEKLGKKVSEEEALAIAEEKAKELKEKGIEDVTIVLPVSAGGSAGGSAGG [r7_512_JUSTAS]	0.374 ± 0.072	0.399 ± 0.17	-0.0343 ± 0.1
SAGGLKIVETKTEPEIGKRYVVIEVYKPETGKPILYVVPLDLEKGENSPEAVAKAILKELKLPPGVKASAGG [r13_362_TrMRF]	1.71 ± 0.16	1.24 ± 0.18	0.58 ± 0.082
SAGGSAGGSAGPKIPKNYKIVATYTVPPTNKKKLILYDPKTNKPLIFDTVSGKIYPFGKKSAGGSAGGSAGG [r11_268_TrMRF]	2 ± 0.11	1.84 ± 0.097	1.59 ± 0.027
SAGGSAGGSAGGSNPVDIVEILSYDPEKNTYTFLVKLPDGSTKTITVPGLSVEEIKKELSAGGSAGGSAGGS [r4_357_JUSTAS]	3.276 ± 0.029	2.86 ± 0.085	1.57 ± 0.083

Sequence	folding stability dG unfold [1] [kcal/mol]	folding stability dG unfold [2] [kcal/mol]	folding stability dG unfold [3] [kcal/mol]
SAGGMPVTVEITVDLVLDPRYRPRPVYPPGETWREPERRVLPVTFTATFGDPEDAERAAVELLRALGVSAGG [r13_35_TrMRF]	1.73 ± 0.032	1.45 ± 0.062	0.866 ± 0.041
SAGGSAGGMKVVVKFTVRPRDPDTDEAVPAELVLEFDSLEEALAAAEELAALPEGTEIEIEVLTSAGGSAGG [r6_999_TrMRF]	1.76 ± 0.031	1.96 ± 0.088	2.2 ± 0.058
SAGGSAGGGIEEELRRVLPEDATVTIEEVPERPLLVVTVTFPERAETRTFTFSPESPEKLIEALSAGGSAGG [r6_612_JUSTAS]	0.628 ± 0.12	0.679 ± 0.12	0.82 ± 0.049
SAGLKFSITKAEWENGYLTVKVMVTGPDGQSQPFTITIRIKPVPKPPPKMTEEKDPNGKKKWEYKDPDSAGG [r19_172_TrROS]	2.6 ± 0.072	2.47 ± 0.24	2.26 ± 0.11
SAGGSAGETVYRVKIRVNGEELEIEVSAEELEALKALPGLEIELVRVEPAPPPEREETVVPEEEEESAGGSA [r15_443_TrROS_Hall]	3.36 ± 0.13	3.43 ± 0.12	3.43 ± 0.17
SAGELKITIAVFRPVEKDENGKEVKVELVEVKTITISKEDLTEEEILKLAEELKKKFPNTVILVTIEPSAGG [r19_369_TrROS_Hall]	2.93 ± 0.19	2.91 ± 0.19	2.59 ± 0.23
SAGGETVTITIKVKGKEITVTFNKDTGKVTITDKDTGKTVTITLPAGEEPTLEELLEALKKLGFEIEPSAGG [r13_687_TrROS_Hall]	4.18 ± 0.095	4.32 ± 0.099	4.11 ± 0.18
SAGGSAGGSKEFKVEEVGGRLYITFPDGTVVEVRFDKPVTFDLKTGKLYFPEGAEVEKRRLKESAGGSAGGS [r20_158_TrROS_Hall]	1.19 ± 0.12	0.905 ± 0.26	0.0253 ± 0.24
SAGGEVKVEIKYDKKKNKIEIKVIVRDKETGEWKELSAEEIAKLLKKKLKLPNVKEIKVEVYEPGEKPSAGG [r13_327_TrROS_Hall]	1.98 ± 0.12	1.97 ± 0.18	1.31 ± 0.11
SAGGTLKVTEEEVSESEFESPGLPLRRTTTTYTLVDPVTGKPVPTSKKVTVETLETPEGRVLETVVTSSAGG [r13_24_JUSTAS]	0.0434 ± 0.14	-0.0697 ± 0.13	-0.45 ± 0.24
SAGGSAGGSAGGSSTAVIRRPETGEEHTFDLPEDATEEDIRARLEAAGFPPGSEIVEIVESAGGSAGGSAGG [r7_70_JUSTAS]	1.91 ± 0.048	1.66 ± 0.035	1.21 ± 0.067
SAGMKPIVELLKKEPNPKVILVEVFPTGGEAKIVVKDKVYVFPVKPGPGRRVLVVDPDGKILEVKPFPVSAG [r5_329_TrMRF]	0.709 ± 0.14	0.708 ± 0.12	0.596 ± 0.15
SAMIVVPATFDDRTFVLRIERLPDGSYLVDVEDPDVSREAVVEALRELLPEDAKIVLDPETNLVYVSFDSAG [r14_370_TrMRF]	3.73 ± 0.052	3.55 ± 0.086	3.34 ± 0.11
SAGGSAGGSAGGGYIEIDSVHLHPDGTVTRTRAVLEVDENGNVRVLSAETETVPLDDILGSAGGSAGGSAGG [r7_521_TrMRF]	2.32 ± 0.043	2.38 ± 0.12	2.28 ± 0.14
SKGTFMAMMPLDEIKEIVENFAKQGWNIKIKPKSIQPFPFPHNDEDGEPEPYPMVMVEVEIKIVPPGDPPSA [r9_991_TrROS]	1.89 ± 0.086	1.64 ± 0.097	1.33 ± 0.024
SAGGSAGGSAGGPEVERFRIPGDNVLVEVVRLEDERIARITFPDGSQLTVPLPPGWEAFSAGGSAGGSAGGS [r10_976_TrMRF]	0.851 ± 0.13	0.948 ± 0.097	0.853 ± 0.031
SAGGSAGGSAGGNVITVFIPNYQIITIHLSPEPGRIPIEVYPPNGKKEEWPIPDIKELIQSAGGSAGGSAGG [r7_769_TrROS]	-0.306 ± 0.14	1.01 ± 0.13	1.6 ± 0.13
SAGGSAGGPEITIIIGNAGPIEVALKTAKEIKKILEEKGYPNVKIPILIIPFGSPEKLKEALGGSAGGSAGG [r6_476_TrMRF]	-0.0243 ± 0.32	0.383 ± 0.29	0.0997 ± 0.1
SAGGMKVEVEKDPIKDGTTITVETGLDPEEVRAFLEELLGPPLEDVTFETAPDGTLVVTARVPPDVGSAGGS [r16_605_JUSTAS]	0.564 ± 0.048	0.816 ± 0.12	0.627 ± 0.054
SAGGSAGGKILVIEIEVDSPEKAVEKAKEIVKELGLPESVKIKEIVFFKEEGDKYRALVLVDLDSAGGSAGG [r6_282_TrMRF]	4.09 ± 0.095	3.95 ± 0.2	3.66 ± 0.23
SAGGSAEIELPEGAKVEVTEVEVDGELYLRMKVVDEETGEVFVMEMRMRPDGEMEMEVKKIPKEELSAGGSA [r15_986_TrROS_Hall]	2.2 ± 0.34	1.85 ± 0.27	1.3 ± 0.19
